Test results from paper PMC8063088.

Key:
[1] = molecular target: NET1_(ΔNTR)^F55R with C-terminal biotinylated Avi-tag (SPR ligand) (human) (UniProt O95631); assay: SPR; NEO1/DCC:NET1 binding site analysis; biotinylated NET1_(ΔNTR) wild type, Interface-1 and Interface-2 mutants captured at 1007, 1027 and 937 RU; analytes NEO1 and DCC FN456 and FN56, two-fold series from 50 μM; equilibrium, one-site model; 25 °C, 10 mM HEPES pH 7.5, 150 mM NaCl, 0.05% polysorbate-20, 1 mg/ml BSA
[2] = molecular target: NET1_(ΔNTR)^Q443N/R445T with C-terminal biotinylated Avi-tag (SPR ligand) (human) (UniProt O95631); assay: as above
[3] = molecular target: NET1_(ΔNTR) 'Interface-1' mutant (F55R), made with an N-terminal His6-SUMO tag (human) (UniProt O95631); assay: AUC; sedimentation velocity, 20 °C; binary NEO1_(FN456)-NET1_(ΔNTR) complexes (NET1 wild type at different concentrations, or Interface-1/-2 mutants) mixed equimolar, 10 mM HEPES pH 7.5, 150 mM NaCl, 2 mM CaCl2
[4] = molecular target: NET1_(ΔNTR) 'Interface-2' mutant (Q443N/R445T), made with an N-terminal His6-SUMO tag (human) (UniProt O95631); assay: as above
1D4-tagged NET1_(ΔNTR) = 1D4-tagged NET1_(ΔNTR) (UniProt O95631); assay: proximity ligation assay (PLA); conditions: COS-7 cells co-transfected with NEO1-mVenus and full-length RGMB, incubated with NET1ΔNTR; p = 0.0107; parent: est. 59; read off a plot

Row | fold lower affinity than wild-type NET1 (ΔNTR) [1] | fold reduction of binding against wild-type NET1 (ΔNTR) [2] | stoichiometry N [3] | stoichiometry N [4] | response (No. of PLA foci) (1D4-tagged NET1_(ΔNTR)) | Substance
1 | 10 fold | 2 fold | 1 NET1:NEO1 | 1 NET1:NEO1 | – | NEO1 FN type III domains 4 to 6 (NEO1_(FN456)) (domain or fragment)
2 | – | – | – | – | 22 | full-length GPI-anchored RGMB (RGMBFL), N-terminal FLAG (from UniProt Q6NW40) A186R
